Results as given in patent US12329806B2, “Compound for modulating rlr, tlr, oas and/or oncostatin m pathways, use thereof for preparing a medicine, composition, method for modulating said pathways and method of treatment” (Instituto Butantan, priority 2018, dated 2025).

System: Equine melanoma tumors
Assay: RNA-Seq transcriptomic analysis (DEGs, EdgeR) of treated equine melanoma tumors excised 6 h and 12 h after injection
Format: in vivo, Equus caballus
Conditions: for SELE expression, average / SELE expression, median: RNA-Seq
Experimental: Equine melanoma tumors were used in experiments with the administration of the compound of the invention, for transcriptomic analysis at different points in time. This translational experiment was carried out at Sao Joaquim Farm (SP) and the samples were transported to the Instituto Butantan, in the city of Sao Paulo. The experiment was designed with non-treated control samples at 0 h (PBS) and the treated tumors were excised 6 h and 12 h after the injection of 1 mg of polypeptide per kg of tumor. For each time point, two tumors were removed from three different animals, producing six tumors per time point. All 18 cDNA libraries were prepared following Illumina's TruSeq® RNA Preparation Kit Kits v2 protocol, and then sequenced using HiSeq 1500 Illumina technology, generating 2×100 bp chain-specific paired readings. The raw sequencing readings had the contaminants removed with bowtie2 2.2.5, and then trimmomatic was used for quality control of the sequences, to cut and remove readings with regions of low complexity and enriched with homopolymers, poly-A/T/N tails, low quality adapter strings and bases, with the fastq-mcf 1.04.662 software. The readings were filtered if more than 90% of the readings correspond to regions of homopolymer or of low complexity. Subsequently, cut if the average quality score was less than 25 in a window size equal to 15. After cutting, all readings less than 40 bp were discarded.
Total RNA was isolated from cells grown with Trizol (Ambion, Life Technologies) and purified with a Mini RNAspin kit (GE Healthcare) according to the manufacturer's instructions, with prolonged treatment with DNase I for 1 h.
RNA quality was assessed with an Agilent 2100 Bioanalyzer RNA Pico assay. RNA was quantified using the Rib-Green Quant-iT and RNA reagent kit (Invitrogen, Life Technologies). The messenger RNA (mRNA) was isolated and used to prepare the complementary DNA (cDNA) libraries following the instructions of the TruSeq RNA Sample Prep Kit V2 (Illumina, San Diego, Calif.). Briefly, the mRNA was isolated with oligo-dT and purified. Then, the mRNA was fragmented by heating to 94° C. (4 min) in fragmentation buffer. The double-stranded cDNA was synthesized, repaired at the end and tail A. The sequencing adapters were then attached to the cDNA fragments, according to the manufacturer's protocol. The cDNA fragments were enriched after 15 rounds of PCR amplification. The quality control of the library was assessed by size distribution of the cDNA libraries measured using 2100 Bioanalyzer with DNA1000 assay (Agilent Technologies) and a StepOnePlus real-time PCR system from ABI were used to quantify the sample library before sequencing. The cDNA library was sequenced on the Illumina HiSeq 1500 System, in a final flow cell paired with Rapid in a 200 pair strategy of 2-101 bp pairing strategy.
The in-silico analysis of RNA-Seq comprises several quality steps and transcriptomic quantification algorithms that are understood in the present invention as “pipeline”. (FIG. 19). The quality check was performed using FastQC3. Hisat214 was used to align readings against the horse's reference genome (Equus caballus) (annotation version 89). To map and quantify transcriptions, the feature Counts was used, resulting in a table of genetic IDs versus samples with raw reading counts. Then, differentially expressed genes (DEGs) were calculated using the EdgeR package. Genes with less than one count per million (CPM) were filtered out. The DEGs were calculated by crossing the sample values of a) 6 h after treatment (6 h)×control (0 h); b) 12 h after treatment (12 h)×control; and also, c) 12 h×6 h. DEGs are defined as an absolute value of log 2 fold change between two groups (LFC)>1 and false discovery rate (FDR)<0.05. […]

[1] = RNA-seq median expression, 12 h

B1: Amblyomin-X: recombinant Kunitz type protein identified in a cDNA library of Amblyomma sculptum tick salivary glands (protein)
chain: MRQLAVLALVIFTGMCVESQSANSKAVCNLPKLAGDETCSNKTEIRWYYNGTACEAFIFKGCGGNDNNFDRVDDCQRLCEEQTHFHFESPKLICFKVQDYWILNDIMKKNLTGISLKSEEEDADSGEID
modifications: Amblyomin-X
notes: recombinant Kunitz type protein identified in a cDNA library of Amblyomma sculptum tick salivary glands
6 h after treatment
  SELE expression, average: 7.15 CPM
  SELE expression, median: 4.56 CPM
12 h after treatment
  SELE expression, average: 4.85 CPM
  SELE expression, median: 5.63 CPM
RNA-seq median expression, 6 h
  median2, gene ACTN1: 153.3001 CPM
  median2, gene BCL3: 46.57 CPM
  median2, gene BIRC3: 47.3192 CPM
  median2, gene CAD: 52.82 CPM
  median2, gene CCL2: 171.527 CPM
  median2, gene CDO1: 22.45 CPM
  median2, gene CTSL: 34.0817 CPM
  median2, gene CXCL6: 6.189 CPM
  median2, gene DDX58: 22.55 CPM
  median2, gene F12: 4.891 CPM
  median2, gene FOSL1: 14.18 CPM
  median2, gene FSCN1: 97.19 CPM
  median2, gene HMOX1: 99.11 CPM
  median2, gene HSPA6: 15.93 CPM
  median2, gene IFI35: 48.07 CPM
  median2, gene IFIH1: 13.29 CPM
  median2, gene IFIT1: 28.13 CPM
  median2, gene IL1B: 20.23 CPM
  median2, gene IL1RN: 120.3935 CPM
  median2, gene IL13RA1: 29.3 CPM
  median2, gene IRF9: 72.39 CPM
  median2, gene ITGA1: 7.06 CPM
  median2, gene MYH1: 0 CPM
  median2, gene MYH3: 1.418 CPM
  median2, gene MYL2: 0 CPM
  median2, gene MYLPF: 1.314 CPM
  median2, gene NTNG1: 1.059 CPM
  median2, gene OAS2: 34.26 CPM
  median2, gene PARP9: 16.34 CPM
  median2, gene PER1: 32.08 CPM
  median2, gene PIK3R6: 5.162 CPM
  median2, gene RUNX1: 8.949 CPM
  median2, gene SAA1: 7.68 CPM
  median2, gene SELP: 22.34 CPM
  median2, gene SLPI: 230.2294 CPM
  median2, gene SOCS3: 12.21 CPM
  median2, gene STAT1: 76.48 CPM
  median2, gene TAT: 1.235 CPM
  median2, gene TEAD4: 21.64 CPM
  median2, gene THBS1: 43.5 CPM
  median2, gene TLR2: 59.58 CPM
  median2, gene TREM1: 31.36 CPM
[1]
  median3, gene ACTN1: 165.3412 CPM
  median3, gene BCL3: 39.97 CPM
  median3, gene BIRC3: 47.38 CPM
  median3, gene CAD: 50.34 CPM
  median3, gene CCL2: 418.8519 CPM
  median3, gene CDO1: 12.71 CPM
  median3, gene CTSL: 33.8889 CPM
  median3, gene CXCL6: 1.108 CPM
  median3, gene DDX58: 31.9 CPM
  median3, gene F12: 8.671 CPM
  median3, gene FOSL1: 11.46 CPM
  median3, gene FSCN1: 152.3466 CPM
  median3, gene HMOX1: 105.6427 CPM
  median3, gene HSPA6: 53.79 CPM
  median3, gene IFI35: 66.19 CPM
  median3, gene IFIH1: 27.95 CPM
  median3, gene IFIT1: 34.11 CPM
  median3, gene IL1B: 10.07 CPM
  median3, gene IL1RN: 118.3058 CPM
  median3, gene IL13RA1: 23.98 CPM
  median3, gene IRF9: 85.24 CPM
  median3, gene ITGA1: 6.155 CPM
  median3, gene MYH1: 0 CPM
  median3, gene MYH3: 1.817 CPM
  median3, gene MYL2: 0 CPM
  median3, gene MYLPF: 1.629 CPM
  median3, gene NTNG1: 0.744 CPM
  median3, gene OAS2: 82.84 CPM
  median3, gene PARP9: 18.56 CPM
  median3, gene PER1: 39.99 CPM
  median3, gene PIK3R6: 4.433 CPM
  median3, gene RUNX1: 9.266 CPM
  median3, gene SAA1: 11.7 CPM
  median3, gene SELP: 20.58 CPM
  median3, gene SLPI: 620.7695 CPM
  median3, gene SOCS3: 11.57 CPM
  median3, gene STAT1: 83.64 CPM
  median3, gene TAT: 9.52 CPM
  median3, gene TEAD4: 39.12 CPM
  median3, gene THBS1: 31.32 CPM
  median3, gene TLR2: 93.64 CPM
  median3, gene TREM1: 24.25 CPM
RNA-seq, 6 h after treatment
  logFC6, gene ACTN1: 1.003
  logFC6, gene BCL3: 1.936
  logFC6, gene BIRC3: 1.275
  logFC6, gene CAD: 1.227
  logFC6, gene CCL2: 2.79
  logFC6, gene CDO1: −1.785
  logFC6, gene CTSL: 1.376
  logFC6, gene CXCL6: 5.945
  logFC6, gene DDX58: 1.434
  logFC6, gene F12: 2.559
  logFC6, gene FOSL1: 4.578
  logFC6, gene FSCN1: 1.457
  logFC6, gene HMOX1: 1.443
  logFC6, gene HSPA6: 5.376
  logFC6, gene IFI35: 1.513
